From patent US20200079842A1 (NETRIS PHARMA, published 2020) come the findings set out here.

Substitutions are numbered along the chain they refer to. Where “and” joins values, the source holds several entries; their conditions need not be identical. Equal entries are not always repeated.

By EC50 is commonly meant the concentration that produces a half-maximal response. Low values mean a more potent agent, high ones a less potent agent. Broadly, the IC50 is the concentration at which inhibition is half-maximal. What is called Kd is the free concentration of one partner at which half of the binding sites on the other are occupied at equilibrium, for simple one-to-one binding. Low readings indicate higher affinity, high ones lower affinity. Broadly, the kon is a measure of how fast the partners come together. A low value points to slow association. As a reminder, the koff is the first-order rate constant of dissociation. Lower therefore signals a long-lived complex. As usually defined, the EC50 (read off the curve) is the concentration needed to bring the measured effect to its halfway point.

B1: HUM03 (antibody, human IgG1, V domains shown)
VH: QVQLQQSGPGLVKPSQTLSLTCAISGYTFTSYNMHWVRQATGQGLEWMGAIYPGNGDTSYNQKFKGRLTISKDTSKNQVVLTMTNMDPVDTATYYCARGGTGFAYWGQG
VL: DIQMTQSPSSLSASVGDRVTITCKASQSVSNDVAWYQQKPGQAPRLLIYYASNRYTGIPPRFSGSGYGTDFTLTINNIESEDAAYYFCQQDYSSPWTFGQG
notes: also called Humanized 4C11; humanized 4C11 hum03
B2: HUM08 (antibody, human IgG1, V domains shown)
VH: B1 VH
VL: DIQMTQSPSSLSASVGDRVTITCKASQSVSNDVAWYLQKPGQSPQLLIYYASNRYTGVPSRFSGSGSGTDFTFTISSLEAEDAATYYCQQDYSSPWTFGQG
notes: also called humanized 4C11 variant HUM08
B3: HUM10 (antibody, human IgG1, V domains shown)
VH: QVQLQQSGPGLVKPSQTLSLTCAISGYTFTSYNMHWIRQPPGKGLEWIGAIYPGNGDTSYNQKFKGRVTITADKSTSTAYMELSSLRSEDTAVYYCARGGTGFAYWGQG
VL: B1 VL
notes: also called humanized 4C11 variant HUM10
B4: murine 4C11 (IgG1) antibody (antibody, V domains shown)
VH: QAYLQQSGAELVRPGASVKMSCKASGYTFTSYNMHWVKQTPRQGLEWIGAIYPGNGDTSYNQKFKGKATLTVDKSSSTAYMQLSSLTSEDSAVYFCARGGTGFAYWGQGTLVTVSA
VL: SIVMTQTPKFLLVSAGDRVTITCKASQSVSNDVAWYQQKPGQSPKLLIYYASNRYTGVPDRFTGSGYGTDFTFTISTVQAEDLAVYFCQQDYSSPWTFGGGTKLEIKR
notes: also called NET1-M-mAb; 4C11 murine IgG1
B5: 4C11 Fab (Fab, V domains shown)
VH: B4 VH
VL: SIVMTQTPKFLLVSAGDRVTITCKASQSVSNDVAWYQQKPGQSPKLLIYYASNRYTGVPDRFTGSGYGTDFTFTISTVQAEDLAVYFCQQDYSSPWTFGGGTKLEIK
notes: only the variable domains are tied to it; also called Fab fragment of murine 4C11
B6: 4C11 murine IgG2a (antibody, V domains shown)
VH: B4 VH
VL: B5 VL
B7: 4C11 Fab′2 (other)
VH: B4 VH
VL: B5 VL
notes: only the variable domains are tied to it; also called Fab′2 fragment of murine 4C11
B8: HUM01 (antibody, human IgG1, V domains shown)
VH: QVQLVQSGAEVKKPGASVKVSCKASGYTFTSYNMHWVRQATGQGLEWMGAIYPGNGDTSYNQKFKGRVTITADKSTSTAYMELSSLRSEDTAVYYCARGGTGFAYWGQG
VL: EIVMTQSPATLSVSPGERATLSCKASQSVSNDVAWYQQKPGKAPKLLIYYASNRYTGIPPRFSGSGYGTDFTLTINNIESEDAAYYFCQQDYSSPWTFGQG
notes: also called humanized 4C11 variant HUM01
B9: HUM06 (antibody, human IgG1, V domains shown)
VH: B8 VH
VL: B1 VL
notes: also called humanized 4C11 variant HUM06
B10: HUM09 (antibody, human IgG1, V domains shown)
VH: B8 VH
VL: DIVMTQTPLSLPVTPGEPASISCKASQSVSNDVAWYQQKPGQAPRLLIYYASNRYTGIPPRFSGSGYGTDFTLTINNIESEDAAYYFCQQDYSSPWTFGQG
notes: also called humanized 4C11 variant HUM09
B11: HUM05 (antibody, human IgG1, V domains shown)
VH: QVQLQESGPGLVKPSQTLSLTCTVSGYTFTSYNMHWVRQAPGQGLEWMGAIYPGNGDTSYNQKFKGRVTISVDTSKNQFSLKLSSVTAADTAVYYCARGGTGFAYWGQG
VL: B2 VL
notes: also called humanized 4C11 variant HUM05
B12: HUM04 (antibody, human IgG1, V domains shown)
VH: EVQLVQSGAEVKKPGESLRISCKGSGYTFTSYNMHWVRQATGQGLEWMGAIYPGNGDTSYNQKFKGRFTISRDDSKNTAYLQMNSLKTEDTAVYYCARGGTGFAYWGQG
VL: B2 VL
notes: also called humanized 4C11 variant HUM04
B13: HUM07 (antibody, human IgG1, V domains shown)
VH: B3 VH with I37V, P40A, P41T, K43Q, I48M
VL: B2 VL
notes: also called humanized 4C11 variant HUM07
B14: HUM02 (antibody, human IgG1, V domains shown)
VH: B3 VH
VL: B2 VL with Y36F, L37Q, K39R, Q45R, L46R
notes: also called humanized 4C11 variant HUM02

The first test addresses T1, His-tagged Netrin-1 (R&D 6419-N1) (human, UniProt O95631 25-604).
T1 construct: Bought protein; also called adsorbed netrin-1; not shown: His tag
As to the kind of experiment: ELISA, coated His-tagged netrin-1, luminescence. The procedure: White 96-well microtiter plate (Costar 3912 Corning) was incubated overnight at 4° C. with 100 ng of His-tagged Netrin-1 (R&D 6419-N1) in 100 μL of Phosphate buffer saline (PBS). After three washings with 300 μL of PBS-0.05% TWEEN®-20 (PBS-T), the plate was blocked by addition of 100 μL of PBS-3% BSA and incubated 1 hour at room temperature. After three washings with 300 μL of PBS-T, the plate was incubated with various quantities (10 ng to 1200 ng) of the anti-netrin-1 antibody. After three washings with 300 μL of PBS-T, 100 μL of a relevant secondary antibody conjugated to horse radish peroxidase (e.g. goat anti-human IgG (Fc) Sigma A0170 or goat anti-mouse IgG light chain specific (kappa) Jackson Immunoresearch 115-035-174) diluted 1/10,000 in PBST-3% BSA was added and the plate was incubated 1 hour at room temperature. After three washings with 300 μL of PBS-T, 100 μL of a luminescent substrate of HRP (ECL western blotting substrate, PIERCE) is added. After 5 to 10 minutes, the luminescence was read on a Tecan Infinite F-500 luminometer.
As for B1, the half-maximal effective concentration (EC50) was 0.166 µg/mL and 1.11 nM.

Consider B2, for which the EC50 is 0.134 µg/mL and 0.894 nM.

B3: the EC50 was 0.211 µg/mL and 1.41 nM.

For the molecule B4, the half-maximal effective concentration (EC50) is 0.057 µg/mL and 0.38 nM.

Consider B5, for which the EC50 is 13 nM and 0.65 µg/mL.

In the case of B6, the concentration giving a half-maximal response (EC50) was 0.063 µg/mL and 0.42 nM.

For the molecule B7, the EC50 was 0.035 µg/mL and 0.35 nM.

In the case of B8, the EC50 was 0.134 µg/mL and 0.894 nM.

Regarding B9, the EC50 was 0.139 µg/mL and 0.927 nM.

For the molecule B10, the EC50 was 0.153 µg/mL and 1.02 nM.

Take B11: the EC50 was 0.151 µg/mL and 1.01 nM.

For B12, the half-maximal effective concentration (EC50) was 0.198 µg/mL and 1.32 nM.

As for B13, the 50% effective concentration (EC50) was 0.125 µg/mL and 0.834 nM.

Take B14: the half-maximal effective concentration (EC50) is 0.26 µg/mL and 1.73 nM.

The target in a further test is T2, FLAG-tagged netrin-1 (Adipogen) (human, UniProt O95631 25-604, limits assumed).
T2 construct: Bought protein; also called FLAG®-tagged Netrin-1 (APOTECH); not shown: FLAG tag
As to the kind of experiment: competition ELISA: FLAG-netrin-1 binding to coated UNC5B-Fc. The protocol: (§1) After three washings with 300 μL of PBS-0.05% TWEEN®-20 (PBS-T), the plate was blocked by addition of 100 μL of PBS-2% BSA and incubated 1 hour at room temperature. After three washings with 300 μL of PBS-T, the plate was incubated for 1 hour at room temperature, with 100 μL of PBS-1% BSA containing 50 ng/mL FLAG®-tagged netrin-1 (Adipogen) and various quantities (0.2 ng to 3000 ng) of the 4C11 antibody. After three washings with 300 μL of PBS-T, 100 μL of an anti-FLAG® M2 monoclonal antibody conjugated to horse radish peroxidase (HRP) (Sigma A8592) diluted 1/5,000 in PBST-1% BSA was added and the plate was incubated 1 hour at room temperature. After three washings with 300 μL of PBS-T, 100 μL of a luminescent substrate of HRP (ECL western blotting substrate, PIERCE) is added. After 5 to 10 minutes, the luminescence was read on a Tecan Infinite F-500 luminometer.
(In an ELISA, binding on a coated surface is turned into a signal by an enzyme label.)
For the molecule B1, the IC50 was 0.065 µg/mL and 0.434 nM.

Consider B2, for which the half-inhibitory concentration (IC50) is 0.077 µg/mL and 0.514 nM.

As for B3, the concentration for half-maximal inhibition (IC50) is 0.11 µg/mL and 0.734 nM.

Regarding B4, the IC50 was 0.075 µg/mL and 0.502 nM.

On to B5, for which the 50% inhibitory concentration (IC50) is 0.844 µg/mL and 16.9 nM.

As for B6, the IC50 is 0.085 µg/mL and 0.567 nM.

Turning to B7, the half-maximal inhibitory concentration (IC50) was 0.089 µg/mL and 0.89 nM.

Consider B8, for which the IC50 is 0.054 µg/mL and 0.36 nM.

Take B9: the half-inhibitory concentration (IC50) is 0.082 µg/mL and 0.547 nM.

For the molecule B10, the half-maximal inhibitory concentration (IC50) is 0.071 µg/mL and 0.474 nM.

For the molecule B11, the IC50 was 0.085 µg/mL and 0.567 nM.

With B12, the IC50 was 0.199 µg/mL and 1.33 nM.

B13: the concentration for half-maximal inhibition (IC50) was 0.089 µg/mL and 0.594 nM.

B14: the 50% inhibitory concentration (IC50) is 0.215 µg/mL and 1.43 nM.

A further test concerns the target T3, human netrin-1 (human, UniProt O95631 25-604, limits assumed).
T3 construct: also called NET1; netrin-I
The test is described as follows: SPR (Biacore T100), 4C11 captured, netrin-1 as analyte, 25° C. The procedure: (§2) Murine 4C11 (IgG1) antibody (SEQ ID NO: 12 and 13) was captured via amine coupled capture molecules. A series with increasing concentrations of netrin-1 was injected. Chip surface with amine coupled capture molecule alone was used as reference control surface for correction of possible buffer-effects or non-specific binding of netrin-I.
(§3) Analyte sample: Classical concentration series were measured at a flow rate of 50 μL/min by consecutive injection of the analyte in 5 or 6 increasing concentrations (c 2-164 nM). Running buffer: 20 mM Hepes pH7.4, 600 mM NaCl, 0.005% TWEEN® 20. The analyte was injected for 3 minutes followed by a dissociation phase of 90 s.
(§4) Kinetic parameters were then calculated by using the usual double referencing (control reference: binding of analyte to capture molecule; Flow Cell: netrin-1 concentration “0” as Blank) and calculation with model ‘titration kinetics 1: 1 binding.
For orientation: In SPR one partner is held on a chip, and binding of the other changes the refractive index at the surface.
As for B4, the Kd is 13.3 nM and 12.7 nM; the kon was 140000 M⁻¹ s⁻¹.

Another test addresses T3, human netrin-1. As to the kind of experiment: SPR (Biacore T100), 4C11 captured, netrin-1 as analyte, 25° C.; Exp 1. The protocol:
as §2, §3, §4
B4 had a koff of 0.0018 s⁻¹.

The next test has as its target T2, FLAG-tagged netrin-1 (Adipogen). As to the kind of experiment: competition ELISA: FLAG-tagged netrin-1 with rising 4C11 on coated UNC5B-Fc, bound netrin-1 detected with anti-FLAG-HRP, luminescence. The procedure: FIG. 2: Inhibition of Netrin-1 binding onto UNC5B-Fc by 4C11. FLAG®-tagged Netrin-1 (APOTECH) in presence of various concentrations of 4C11 were incubated onto 96-well microtiter plate coated with UNC5B-Fc (Netris). Bound Netrin-1 was detected using an anti-FLAG® antibody conjugated with horseradish peroxidase (Sigma) and a chemiluminescent substrate (PIERCE ECL western blotting substrate). The luminescence was read on a Tecan Infinite F-500 luminometer.
as §1
Turning to B4, the “IC50 (read off the curve)” value was around 0.6 nM.

For another test the target is unchanged. The test is described as follows: ELISA-type assay, netrin-1 coated on the plate (legend paragraph 28: FLAG-tagged Netrin-1, APOTECH; Example 3: His-tagged Netrin-1, R&D), anti-mouse IgG-HRP, luminescence. The protocol: FIG. 1: ELISA binding assay of murine 4C11 to human Netrin-1. Various concentrations of 4C11 were incubated onto 96-well microtiter plate coated with FLAG®-tagged Netrin-1 (APOTECH). Bound 4C11 was detected using a goat anti-mouse IgG conjugated with horseradish peroxidase (Jackson Immunoresearch) and a chemiluminescent substrate (PIERCE ECL western blotting substrate). The luminescent was read on a Tecan Infinite F-500 luminometer.
In the case of B4, the “EC50 (read off the curve)” value is around 0.03 µg/mL.
